# Assay results taken from patent publication US20060058231A1.
# Target: anti-BMP-7 antibodies of the commercial ELISA (R&D Systems ELISA Duoset Cat#DY354)
# Assay: sandwich ELISA (R&D Systems BMP7 ELISA Cat#DY354), BMP-7 protein titrated, % ELISA signal; the EC50 column carries no unit, the concentration axis is in ug/mL
row,EC50,Binder
1,1.74 ng/mL,492 (ligand) BMP-7 mature domain: STGGKQRSQNRSKTPKNQEALRMASVAENSSSDQRQACKKHELYVSFRDLGWQDWIIAPEGYAANYCEGECAFPLNSHMNATNHAIVQTLVHFINPETVPKPCCAPTQLNAISVLYFDDSSNVILKKYRNMVVRACGCH
2,0.755 ng/mL,471 (ligand) BMP-7 mature domain: STGGKQRSQNRSKTPKNQEALRMASVAENSSSDQRQACSKHELYVSFRDLGWQDWIIAPEGYAAYYCEGECAFPLNSYMNATNHAIVQTLVHFINPETVPKPCCAPTQLNAISVLYFDDSSNVILKKYRDMVVRACGCH
